Source: US20040097454A1, “Method for modulation of cell phenotype” (University Technology Corporation, priority 1999, published 2004)

Key:
3T3-L1 cells = assay: 3T3-L1 cell proliferation (Cell-Titer 96 Aq); assay type: cell-based; details: muristerone-treated versus control clones, 72 hours
Experimental: 3T3-L1 fibroblasts were passaged and treated with differentiation-inducing agents as previously described (Klemm et al., 1998, J. Biol. Chem., 273:917-923), incorporated herein by reference in its entirety. Plates of 3T3-L1 fibroblasts and adipocytes were grown to 70-80% confluency and transfected with the above-described plasmids with Superfect Reagent (Oiagen, Valencia, Calif.) according to the manufacturer's recommendations. Cells stably transfected with the plasmid, pVgRXR were selected for in conventional medium containing 500 ug/mi Zeocin, and cells stably transfected with pIND-VP16-CREB, pIND-KCREB or pIND-LacZ plasmids were selected for in medium containing 500 ug/ml Geneticin. Large, rapidly growing, well separated colonies were isolated 10 to 12 days after selection was begun with either antibiotic. […] The effect of VP16-CREB and KCREB expression on 3T3-L1 proliferation was assessed by measuring cell number with the Cell-Titer 96 Aq reagent system (Promega Corp., Madison, Wis.).
Two possible mechanisms by which CREB could potentiate adipose differentiation would be by increasing cell proliferation related to clonal expansion, or by inhibiting cell growth as a prelude to terminal differentiation. To examine these possibilities, changes in the rate of cell growth in control versus muristerone-treated VP16-CREB and KCREB expressing clones was measured.

BASMC = assay: Transient VP16CREB transfection in BASMC, phenotype; assay type: cell-based, bovine; details: preliminary transient transfections
From the text: It is expected that dominant negative CREB and sense ICER will lead to SMC phenotypic modulation. If the dose delivered overwhelms the cells, apoptosis may occur. Assays to confirm or deny the induction of apoptosis are readily available in the lab in conjunction with the neurodegeneration REAP. Overexpression of WT CREB is likely to promote a differentiated phenotype. The present inventors have already provided data above showing arrest of cell cycle and decreased migration with CREB overexpression. The constitutively active CREB could induce ICER and promote dedifferentiation, promote proliferation by driving immediate early genes, or maintain the mature phenotype. Adenoviral overexpression of constitutively active signaling elements can lead to non-physiological protein interactions. […] The dominant negative CREB and ICER overexpression experiments will be the most informative for the question of how CREB down-regulation impacts phenotype.

[1] = system: PPARγ2 and FABP expression in 3T3-L1 cell lines; assay: Expression of adipocyte-specific markers PPARγ2 (Western) and FABP (RNA blot); assay type: cell-based; details: muristerone-treated VP16-CREB cell lines, absence of other differentiation-stimulating agents
Experimental: In this experiment, control, VP16-CREB and KCREB expressing cells lines were grown and treated as above. On days 0 and 10 of the experiment, whole cell lysates and total RNA were prepared from duplicate wells of cells. Approximately 25 ug of protein in the cell lysates (lysed directly on multiwell slides in SDS gel loading buffer) was separated on 10% polyacrylamide-SDS gels and transferred to nitrocellulose blots. The blots were probed with a polyclonal antibody to PPARγ2, and the specific PPARγ2 band is indicated by an * in the top row of blots (FIG. 3).
Similarly, 10 ug of total RNA was separated on 1% denaturing (formaldehyde) agarose gels run at 5 V/cm until the Bromophenol Blue tracking dye had migrated half the length of the gel. The gels were soaked in several changes of distilled water, overnight at 4° C., and stained with ethidium bromide and briefly examined in ultraviolet light to insure RNA integrity and equivalent RNA amounts in each lane. The gels were destained in several changes of 5× sodium chloride/sodium citrate (SSC) buffer. RNA was transferred onto nitrocellulose membranes. The resulting blots were heated to 80° C. under vacuum for two hours. The membranes were blocked for 30 minutes at 70° C., and then a biotin-labeled FABP-specific oligonucleotide probe (250 fg/ml) was added for an additional 30 min. […]

[2] = system: PEPCK, FABP and FAS gene promoters in 3T3-L1 fibroblasts; assay: Full length PEPCK, FABP and FAS promoter luciferase reporters in 3T3-L1 fibroblasts; assay type: cell-based; details: relative to untreated cells
Experimental: Control, VP16-CREB or KCREB inducibly expressing 3T3-L1 fibroblasts were transfected with plasmids containing the full length promoters of the PEPCK, FABP or FAS genes linked to luciferase. The cells were cotransfected with the internal control plasmid, pRSV-pGal. […] Cell lysates were then prepared, and luciferase activity measured as an index of transcriptional activity. Levels of transcription are shown relative to levels measured in untreated cells for each promoter tested, and were corrected for transfection efficiency.

[3] = system: NIH 3T3-L1 preadipocyte cell lines; assay: Adipocyte differentiation assay, Oil Red O staining of triacylglycerol; assay type: cell-based; details: muristerone-induced expression alone, no differentiation agents, 10 days
Experimental: Differentiation assays were performed on cells growing on 8 chamber microscope slides. […] The cells were treated with a differentiation mixture, muristerone, or both. […] Muristerone was added to medium at a final concentration of 10 uM for the entire 10 day differentiation period. After 10 days in culture, the cells were stained with Oil Red 0 to visualize triacylglycerol vesicles as previously described (Klemm et al., 1998, J. Biol. Chem., 273:917-923), and counterstained with hematoxylin to visualize cell morphology. Cells were observed by brightfield microscopy and representative fields, were photographed.

[4] = system: CREluc reporter in HEK cells; assay: CREluc reporter in HEK cells transfected with CREB constructs; assay type: cell-based; details: transient transfection of adenoviral expression plasmids
From the text: CDNA for KCREB, CREB DIEDML and VP16CREB were cloned into adenoviral expression vectors as described previously herein. The plasmids were transiently transfected into HEK cells to assess their impact upon a cotransfected CREluc reporter construct. […] Transfected cells were also lysed and CREB protein content and Flag content assayed Western analysis. All proteins were highly expressed in HEK cells (data not shown).

[5] = system: PEPCK gene promoter in NIH 3T3-L1 clonal cell lines; assay: Truncated CRE-containing PEPCK promoter luciferase reporter (-109 pPC-Luc) in 3T3-L1 clones; assay type: cell-based; details: VP16-CREB clones 2-4 and 9-7; muristerone; versus untreated cells
Experimental: To test the ability of KCREB and VP16-CREB expression to influence gene transcription, a plasmid containing a truncated, CRE-containing portion of the phosphoenolpyruvate carboxykinase (PEPCK) gene promoter linked to a luciferase reporter gene (−109 pPC-Luc) was transfected into each of the clones. […] Four hours later cell lysates were prepared and luciferase activity measured as an index of transcriptional activity. Levels are shown relative to levels of luciferase activity in untreated, control cells (No Add'n).

B1: VP16-CREB: constitutively active fusion protein: VP16 transactivation domain (aa 412-490) linked to CREB DNA binding domain (aa 217-327), SEQ ID NO:6 (protein, listed as Homo sapiens)
chain: MAPKKKRKVPGVPSSNCIDTAPPTDVSLGDELHLDGEDVAMAHADAHDDFDLDMLGDGDSPGPGFTPHDSAPYGALDMADFEFEQMFTDALGIDEYGGIDWILVPSNQVVVQAASGDVQTYQIRTAPTSTIAPGVVMASSPALPTQPAEEAARKREVRLMKNREAARECRRKKKEYVKCLENRVAVLENQNKTLIEELKALKDLYCHKSZ
rate of cell proliferation (3T3-L1 cells): No significant differences in the rate of cell proliferation | SMC phenotype (BASMC): phenotypic changes consistent with increased differentiation | PPARγ2 and FABP expression, day 10 [1]: easily detected | transcription (luciferase) from full-length PEPCK, FABP and FAS promoters [2]: stimulated | triacylglycerol accumulation and cell morphology (Oil Red O) [3]: sufficient to induce triacylglycerol accumulation and rounded cell morphology | CREluc reporter luciferase expression [4]: strongly drive the reporter | luciferase production from the PEPCK promoter fragment, stimulation [5]: 3.5 to 4 fold
